# Measured values: US20080108569
# Target: 6His-tagged human Akt1, P31749
# Sequence (P31749 whole entry, looked up): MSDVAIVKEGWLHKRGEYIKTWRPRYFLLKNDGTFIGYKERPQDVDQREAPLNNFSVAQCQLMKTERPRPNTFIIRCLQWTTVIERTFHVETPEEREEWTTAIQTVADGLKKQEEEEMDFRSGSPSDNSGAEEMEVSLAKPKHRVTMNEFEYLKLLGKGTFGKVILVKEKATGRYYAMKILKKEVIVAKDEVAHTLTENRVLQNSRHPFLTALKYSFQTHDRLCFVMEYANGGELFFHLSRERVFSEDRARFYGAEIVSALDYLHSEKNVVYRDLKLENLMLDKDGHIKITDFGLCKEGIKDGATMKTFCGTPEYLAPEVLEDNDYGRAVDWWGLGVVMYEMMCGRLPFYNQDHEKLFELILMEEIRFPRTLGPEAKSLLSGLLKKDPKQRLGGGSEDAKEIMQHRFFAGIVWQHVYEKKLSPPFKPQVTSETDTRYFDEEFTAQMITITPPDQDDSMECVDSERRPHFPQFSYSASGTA
Protein,dephosphorylation of Ser 473 by immunoprecipitated enzyme,dephosphorylation of Thr 308 by immunoprecipitated enzyme,dephosphorylation of Ser 473 in 5 minutes (phospho-specific antibody),dephosphorylation of Thr 308 in 5 minutes (phospho-specific antibody)
HA-tagged full length PHLPP2 (protein) MGYPYDVPDYAMKRNGSRNCLNRRSRFGSRERDWLREDVKRGCVYLYGADTTTATTTTTTSSSSSSSSSSSDLHLVLCTVETPASEICAGEGRESLYLQLHGDLVRRLEPTERPLQIVYDYLSRLGFDDPVRIQEEATNPDLGCMIRFYGEKPCHMDRLDRILLSGIYNVRKGKTQLHKWAERLVVLCGTCLIVSSVKDCQTGKMHILPLVGGKIEEVKRRQYSLAFSSAGAQAQTYHVSFETLAEYQRWQRQASKVVSQRISTVDLSCYSLEEVPEHLFYSQDITYLNLRHNFMQLERPGGLDTLYKFSQLKGLNLSHNKLGLFPILLCEISTLTELNLSCNGFHDLPSQIGNLLNLQTLCLDGNFLTTLPEELGNLQQLSSLGISFNNFSQIPEVYEKLTMLDRVVMAGNCLEVLNLGVLNRMNHIKHVDLRMNHLKTMVIENLEGNKHITHVDLRDNRLTDLDLSSLCSLEQLHCGRNQLRELTLSGFSLRTLYASSNRLTAVNVYPVPSLLTFLDLSRNLLECVPDWACEAKKIEVLDVSYNLLTEVPVRILSSLSLRKLMLGHNHVQNLPTLVEHIPLEVLDLQHNALTRLPDTLFSKALNLRYLNASANSLESLPSACTGEESLSMLQLLYLTNNLLTDQCIPVLVGHLHLRILHLANNQLQTFPASKLNKLEQLEELNLSGNKLKTIPTTIANCKRLHTLVAHSNNISIFPEILQLPQIQFVDLSCNDLTEILIPEALPATLQDLDLTGNTNLVLEHKTLDIFSHITTLKIDQKPLPTTDSTVTSTFWSHGLAEMAGQRNKLCVSALAMDSFAEGVGAVYGMFDGDRNEELPRLLQCTMADVLLEEVQQSTNDTVFMANTFLVSHRKLGMAGQKLGSSALLCYIRPDTADPASSFSLTVANVGTCQAVLCRGGKPVPLSKVFSLEQDPEEAQRVKDQKAIITEDNKVNGVTCCTRMLGCTYLYPWILPKPHISSTPLTIQDELLILGNKALWEHLSYTEAVNAVRHVQDPLAAAKKLCTLAQSYGCQDNVGAMVVYLNIGEEGCTCEMNGLTLPGPVGFASTTTIKDAPKPATPSSSSGIASEFSSEMSTSEVSSEVGSTASDEHNAGGLDTALLPRPERRCSLHPTPTSGLFQRQPSSATFSSNQSDNGLDSDDDQPVEGVITNGSKVEVEVDIHCCRGRDLENSPPLIESSPTLCSEEHARGSCFGIRRQNSVNSGMLLPMSKDRMELQKSPSTSCLYGKKLSNGSIVPLEDSLNLIEVATEVPKRKTGYFAAPTQMEPEDQFVVPHDLEEEVKEQMKQHQDSRLEPEPHEEDRTEPPEEFDTAL,60+4% dephosphorylation of Ser 473,no significant effect on Thr 308 phosphorylation,,
GST-tagged PP2C domain of PHLPP2 (protein) TSTFWSHGLAEMAGQRNKLCVSALAMDSFAEGVGAVYGMFDGDRNEELPRLLQCTMADVLLEEVQQSTNDTVFMANTFLVSHRKLGMAGQKLGSSALLCYIRPDTADPASSFSLTVANVGTCQAVLCRGGKPVPLSKVFSLEQDPEEAQRVKDQKAIITEDNKVNGVTCCTRMLGCTYLYPWILPKPHISSTPLTIQDELLILGNKALWEHLSYTEAVNAVRHVQDPLAAAKKLCTLAQSYGCQDNVGAMV,,,82+6% (Ser 473),70+2% (Thr 308)
